Consider 15 molecules from US20250313612A1 (Adimab, published 2025).

The target of assay [1] is RSV F protein of recombinant mKate-RSV, subtype A (strain A2) (Respiratory syncytial virus subtype A …, UniProt P03420 26-574). Briefly: cell-based or functional assay.
The target in assay [2] is RSV F protein of recombinant mKate-RSV, subtype B (18537) (Respiratory syncytial virus subtype B …, UniProt P13843 26-574). Briefly: cell-based or functional assay.
The target of assay [3] is T1, RSV F ectodomain stabilized in the postfusion conformation (F ΔFP), subtype A (Respiratory syncytial virus subtype A, UniProt P03420 26-109; P03420 147-524).
T1 construct: extracellular domain; trimer; furin-cleaved; also called Postfusion subtype A
Nature of the assay: BLI, IgG on AHQ sensor, 100 nM antigen.

Assay [4] addresses T2, RSV F ectodomain stabilized in the postfusion conformation (F ΔFP), subtype B (Respiratory syncytial virus subtype B, UniProt P13843 26-109; P13843 147-524).
T2 construct: extracellular domain; trimer; also called Postfusion subtype B; postF subtype B
Briefly: BLI, IgG on AHQ sensor, 100 nM antigen. For orientation: BLI is a label-free optical method that tracks binding on a fibre tip over time.

B1: ADI-14439 (antibody, V domains shown)
VH: QVQLVQSGAEVKKPGSSVRVSCRASGVTLTTVAVNWVRQVPGQGPEWIGGILVGLGKVRLAQKFENRATLRADTSSNTAYMELSGLRFEDTAVYYCAIIDPQDCTAASCFWVNWLDPWGQGTLVTVSS
VL: EIVLTQSPGTLTLSPGETATLSCRASQSVLSGYLAWYQQKPGQAPRLLIYAASTRATDIPARFTGSGSATDFTLTISRLEPQDFAVYYCQQYGSAPITFGQGTRLEIK
notes: full-length IgG (yeast-expressed); also called Antibody Number 2; Ab# 2
With B1, in assay [1], the “Neut IC50 subtype A” value was over 10 µg/mL. For the same molecule, the “Neut IC50 subtype B” value in assay [2] was 4.12 µg/mL. Besides, the Kd in assay [3] turned out to be 5160 pM; in assay [4] it was 16200 pM.

B2: ADI-14524 (antibody, V domains shown)
VH: EVQLVESGGGLVQPGGSLRLSCAASGFSFSDYSMNWVRQAPGKGLEWVSYITPSSRNKFYADSVRGRFTISRDNAENSLYLQMNSLRVEDTAVYYCVRSLHWGAAIERWDVWGQGTTVTVSS
VL: EIVLTQSPGTLSLSPGERATLSCRASQSISSSFFAWYQQTPGQAPRLLMYATSSRATGIPDRFSGSGSGTDFTLTISRVEPEDFAVYYCQQSGSSPYTFGQGTKVEIK
notes: full-length IgG (yeast-expressed); also called Antibody Number 84; Ab# 84
For B2, the “Neut IC50 subtype A” value in assay [1] turned out to be 6.05 µg/mL. Moreover, the “Neut IC50 subtype B” value in assay [2] is 6 µg/mL. Further, the results for the Kd in assay [3] and in assay [4] were 826 pM and 771 pM, respectively.

B3: ADI-14512 (antibody, V domains shown)
VH: EVQLVESGAEVKKPGSSVKVSCKVVGGSFSNYGISWVRQAPGQGPEWMGGIIPAFKTAKYAKKFEDRVTITADESTSTAYMEVSGLRSDDTALYYCARPERDFGHLKWLRSPFDYWGQGTLVTVSS
VL: ETTLTQSPATLSVSPGERVTLSCRASQGVSINLAWYQQKPGQAPRLLIYGASTRATDIPARFSGSGSGTDFTLTISSLQSEDFAVYYCQQYNDWPPQLTFGPGTKVEIK
notes: full-length IgG (yeast-expressed); also called Antibody Number 73; Ab# 73
On to B3, for which the “Neut IC50 subtype A” value in assay [1] is over 10 µg/mL. The “Neut IC50 subtype B” value in assay [2] was over 10 µg/mL. Besides, the Kd in assay [3] was found to be 2670 pM; in assay [4] it was 587 pM.

B4: ADI-14449 (antibody, V domains shown)
VH: EVQLVESGGDLVKPGGSLRLSCEGSGFIFPNAWMSWVRQAPGKGLEWVGRIKSNTDGGTTDYGAPVKGRFTISRDDSTNTMYLHMNSLKTEDTAVYFCSTGPPYKYFDETGYSVVDYWGQGTLVTVSS
VL: SYELTQPPSASGTPGQRVIISCSGSTSNSGYNYFYWYQQRPGTAPKLLIYGSDQRPSGVPDRFSGSQSGPSASLAISGLRSEDEAHYYCAAWDDNLSGPVFGGGTKLTVL
notes: full-length IgG (yeast-expressed); also called Antibody Number 12; Ab# 12
In the case of B4, the “Neut IC50 subtype A” value in assay [1] was 0.193 µg/mL. The “Neut IC50 subtype B” value in assay [2] turned out to be 0.182 µg/mL. The Kd in assay [3] amounted to 204 pM; in assay [4] it was 462 pM.

B5: ADI-14447 (antibody, V domains shown)
VH: QVQLVQSGAEMKKPGSSVTVSCKASGVPFTSYTYSWVRQAPGQGLEWMGRVLPVIGSAKYPQKFQGTVTITADKSTSTIYLQLSSLRPEDTAIYFCAGSLLAGYDREFDSWGQGTLVTVSS
VL: DIQMTQSPSSLSASVGDRITITCRASQGISNWLAWYQQKPGKAPKSLIYEASTLQSGVSSRFSGSGSGTHFTLTIASLQPEDFATYYCQQYYIYPLTFGGGTKLEIK
notes: full-length IgG (yeast-expressed); also called Antibody Number 10; Ab# 10
Take B5: the “Neut IC50 subtype A” value in assay [1] turned out to be 0.143 µg/mL. Further, the “Neut IC50 subtype B” value in assay [2] was found to be 0.372 µg/mL. The Kd was determined as 339 pM in assay [3] and 271 pM in assay [4].

B6: ADI-14453 (antibody, V domains shown)
VH: QITLKESGPTVVKPTQTLTLTCTFSGFSLNTRGMGVAWIRQPPGGALEWLALVDWDDDKRYSPSLRSRLTITKDTSKNQVLFTMTTMDPADTATYYCAHIGLYDRGGYYLFYFDFWGQGTLVTVSS
VL: DIVLTQSPSSLSASVGDRVTITCRASQSIASYVNWFQQKPGKAPVLLMFASSILQSGVPPRFRGSGSGTDFTLTITSLQPEDFATYYCQHTYTTPYIFGRGTKVEIK
notes: full-length IgG (yeast-expressed); also called Antibody Number 16; Ab# 16
For the molecule B6, in assay [1], the “Neut IC50 subtype A” value is over 10 µg/mL. In assay [2], the “Neut IC50 subtype B” value was over 10 µg/mL. Further, the dissociation constant Kd in assay [3] amounted to 261 pM; in assay [4], 228 pM.

B7: ADI-14446 (antibody, V domains shown)
VH: QVQLVQSGAEVKKPGSSVKVSCEASGDTFTSYAVIWVRQTPGQGLEFMGSIIPIFQTINYAPKFQGRVTLSADGSTSTVFMELRNLRSEDTAIYFCATKRYCTSPSCHGLWYFNLWGRGTMVTVSS
VL: ETTLTQSPISLSVTPGEPASISCRSSKSLLDSDDGNTYLDWYLQKPGQSPQILIYMLSYRASGVPDRFSGSGSGTDFTLKISRVEAEDVGVYYCMQRIEYPYTFGQGTKVEIK
notes: full-length IgG (yeast-expressed); also called Antibody Number 9; Ab# 9
On to B7, for which the “Neut IC50 subtype A” value in assay [1] is 0.091 µg/mL. Moreover, the “Neut IC50 subtype B” value in assay [2] was determined as 0.187 µg/mL. For the same molecule, the Kd in assay [3] amounted to 213 pM; in assay [4], 137 pM.

B8: ADI-14452 (antibody, V domains shown)
VH: QVQLVQSGAEVKKPGSSVKVSCEASGDTFTSYAVIWVRQAPGQGLEWMGSIIPIFQTINYAPKFQGRVTLSADGSTRTVYMELGSLRSEDTAIYFCATKRYCTSPSCHGLWYFNLWGRGTLVTVSS
VL: DIVMTQSPLSLPVTPGEPASISCRSSKSLLDSDDGNTYLDWYLQKPGQSPQILIYMLSHRASGVPDRFSGSGSGTDFTLKISRVEAEDVGVYYCMQRVEYPYSFGQGTKVEIK
notes: full-length IgG (yeast-expressed); also called Antibody Number 15; Ab# 15
Turning to B8, the “Neut IC50 subtype A” value in assay [1] was 0.076 µg/mL. Besides, the “Neut IC50 subtype B” value in assay [2] came to 0.157 µg/mL. The Kd in assay [3] amounted to 217 pM; in assay [4], 139 pM.

B9: ADI-14513 (antibody, V domains shown)
VH: QVQLVQSGSEVKRPGSSVKVSCKASGVALTTVAVNWVRQVPGQGPEWIGGILIGFGKVRQAQKFENRVTFTADASRNTAYMELSGLRSEDTAVYYCAIIDPQDCTRASCFWVNWLAPWGHGTLVTVSS
VL: DIRVTQSPGTLTLSPGERASLSCRASESILNGNLAWYQQKPGQAPRLLIYAASSRATDIPDRFSGSGSGTDFTLTISRLEPQDFAVYYCQQYGSAPITFGQGTRLEIK
notes: full-length IgG (yeast-expressed); also called Antibody Number 74; Ab# 74
With B9, the “Neut IC50 subtype A” value in assay [1] amounted to 4.81 µg/mL. Also, the “Neut IC50 subtype B” value in assay [2] stood at 2.2 µg/mL. Moreover, the Kd is 1210 pM in assay [3] and 962 pM in assay [4].

B10: ADI-14445 (antibody, V domains shown)
VH: EVQLLESGAVMKRPGSSVRVSCRASGVTLTTVSVNWVRQVPGQGPEWIGGILIGFGKVRQAQKFENRVTLTADASRNTAYMELSGLTSDDTAVYYCAIIDPQDCTRASCFWVNWLDPWGQGTLVTVSS
VL: DIRMTQSPGTLTLSPGERATLSCRASQSILSGNLAWYQQKPGQAPRLLISAASTRATDIPDRFSGSGSGTDFTLTITRLEPQDFAVYYCQQYDSAPITFGQGTRLEIK
notes: full-length IgG (yeast-expressed); also called Antibody Number 8; Ab# 8
For the molecule B10, in assay [1], the “Neut IC50 subtype A” value was over 10 µg/mL. For the same molecule, the “Neut IC50 subtype B” value in assay [2] amounted to 1.21 µg/mL. The Kd in assay [3] is 4920 pM; in assay [4] it was 15200 pM.

B11: ADI-14457 (antibody, V domains shown)
VH: QVTLKESGPALVRPKQTLTLTCSFSGFSLDTQRTGVNWIRQSPGKALEWLARIDWDGNIYSSTSVRTKLSISKGTSKNQVVLTMTDVDPVDTATYYCARTLYYTSGGYYLNLFDYWGQGTLVTVSS
VL: EIVMTQSPPSLSASVGDRVTITCRASQTIPSYVNWYQQISGKAPRLLIYAASLLQSGVPSRFSGSGSGTEFSLTISGLRPEDFGTYYCQQSYSSTPTFGQGTKVEIK
notes: full-length IgG (yeast-expressed); also called Antibody Number 20; Ab# 20
Regarding B11, the “Neut IC50 subtype A” value in assay [1] is 0.2 µg/mL. Besides, the “Neut IC50 subtype B” value in assay [2] is 0.251 µg/mL. Also, the Kd in assay [3] was determined as 380 pM; in assay [4], 461 pM.

B12: ADI-14484 (antibody, V domains shown)
VH: QVTLKESGPALVRPKQTLTLTCSFSGFSLDTQRTGVNWIRQSPGKALEWLARIDWDGNIYSSTSVRTKLSISKGTSKNQVVLTMTDVDPVDTATYYCARTLYYTSGGYYLNLFDYWGQGTLVTVSS
VL: EIVMTQSPPSLSASVGDRVTITCRASQTIPSYVNWYQQISGKAPRLLIYAASLLQSGVPSRFSGSGSGTEFSLTISGLRPEDFGTYYCQQSYSSTPTFGQGTRLEIK
notes: full-length IgG (yeast-expressed); also called Antibody Number 45; Ab# 45
With B12, the “Neut IC50 subtype A” value in assay [1] was 0.448 µg/mL. Moreover, the “Neut IC50 subtype B” value in assay [2] was 0.169 µg/mL. Moreover, the Kd in assay [3] is 389 pM; in assay [4], 394 pM.

B13: ADI-14450 (antibody, V domains shown)
VH: QVQLVQSGGGLVKPGGSRRLACAASGFIFRNAWMSWVRQAPGKGLEWVGRIKRTSEGGSVDYATPVQGRFSISRDDSRNTLYLQMHSLAPDDTAVYYCSTGPPYSYFDSTGYSVVDYWGQGTLVTVSS
VL: QSVLTQPPSASGTPGQRVTISCSASSSNIGDNYFYWYQQLPGKAPTLLMYGSDQRSSGVPDRFSGSQSGTSASLAISGLRSEDEAAYYCAAWDDSLSGPVFGGGTQLTVL
notes: full-length IgG (yeast-expressed); also called Antibody Number 13; Ab# 13
With B13, the “Neut IC50 subtype A” value in assay [1] is 0.195 µg/mL. The “Neut IC50 subtype B” value in assay [2] came to 0.315 µg/mL. The Kd stood at 227 pM in assay [3] and 142 pM in assay [4].

B14: ADI-14523 (antibody, V domains shown)
VH: EVQLVESGGGLVKPGGSLRLSCAASGFIFRNAWMSWVRQAPGKGLEWVGRIKRTSEGGSVDYATPVQGRFSISRDDSRNTLYLQMNSLETDDTAVYYCSTGPPYSYFDSSGYSVVDYWGQGTLVTVSS
VL: QSVLTQPPSASGTPGQRVTISCSASSSNIGDNYFYWYQQLPGKAPTLLMYGSDQRSSGVPDRFSGSQSGTSASLAISGLRSEDEADYYCAAWDDSLSGPVFGGGTKLTVL
notes: full-length IgG (yeast-expressed); also called Antibody Number 83; Ab# 83
On to B14, for which the “Neut IC50 subtype A” value in assay [1] is 0.239 µg/mL. Further, the “Neut IC50 subtype B” value in assay [2] was 0.151 µg/mL. Further, the Kd in assay [3] came to 192 pM; in assay [4], 131 pM.

B15: ADI-14454 (antibody, V domains shown)
VH: QVQLVQSGPTLVKPTQTLTLTCTFSGFSLSTRGVGVGWIRQPPGKALECLGFTYWDGDQFHSPSLKNRLTITKDTSKNQVVLRMTNMDPVDTATYFCVHSDLYDSGGYYLYYFDYWGQGTLVTVSS
VL: DIQMTQSPSSLSASVGDRVTITCRASQTIASYLNWYQQRPGEAPKLLIYAASSLQSGVSSRFSGRGSGTDFTLTINILQPEDLATYFCQQAYSAPYTFGQGTKVEIK
notes: full-length IgG (yeast-expressed); also called Antibody Number 17; Ab# 17
For the molecule B15, the “Neut IC50 subtype A” value in assay [1] was 0.23 µg/mL. Further, the “Neut IC50 subtype B” value in assay [2] was 2.54 µg/mL. Moreover, the Kd in assay [3] was 297 pM; in assay [4], 483 pM.

A word on the Kd: it is the concentration at which binding is half-saturated. The low end stands for tighter binding, the high end for weaker binding.
